This note sets out measurements from paper PMC3448639.

The nature of this data set: 6% PFO-PAGE immunoblot. Particulars: glycan lost; control: wild type.

B1: SR-BI (scavenger receptor class B type I; CLA-1): T175A (protein)
parent chain: MGCSAKARWAAGALGVAGLLCAVLGAVMIVMVPSLIKQQVLKNVRIDPSSLSFNMWKEIPIPFYLSVYFFDVMNPSEILKGEKPQVRERGPYVYREFRHKSNITFNNNDTVSFLEYRTFQFQPSKSHGSESDYIVMPNILVLGAAVMMENKPMTLKLIMTLAFTTLGERAFMNRTVGEIMWGYKDPLVNLINKYFPGMFPFKDKFGLFAELNNSDSGLFTVFTGVQNISRIHLVDKWNGLSKVDFWHSDQCNMINGTSGQMWPPFMTPESSLEFYSPEACRSMKLMYKESGVFEGIPTYRFVAPKTLFANGSIYPPNEGFCPCLESGIQNVSTCRFSAPLFLSHPHFLNADPVLAEAVTGLHPNQEAHSLFLDIHPVTGIPMNCSVKLQLSLYMKSVAGIGQTGKIEPVVLPLLWFAESGAMEGETLHTFYTQLVLMPKVMHYAQYVLLALGCVLLLVPVICQIRSQVGAGQRAARADSHSLACWGKGASDRTLWPTAAWSPPPAAVLRLCRSGSGHCWGLRSTLASFACRVATTLPVLEGLGPSLGGGTGS
On to B1, for which the oligomerisation result was “no change”.
